Test results reported in PMC10995199, “Architecture and regulation of filamentous human cystathionine beta-synthase” (Nature Communications, 2024).

Biological target: the molecule itself
Experiment: SEC + native gel or EMSA; control constructs in analytical Superose 6 gel filtration and clear-native and blue-native PAGE (Supplementary Fig. 2); self-association

B1: human cystathionine beta-synthase catalytic domain alone (CBS^CD, residues 1–413) (domain or fragment, UniProt P35520 1-413, looked up)
chain: MPSETPQAEVGPTGCPHRSGPHSAKGSLEKGSPEDKEAKEPLWIRPDAPSRCTWQLGRPASESPHHHTAPAKSPKILPDILKKIGDTPMVRINKIGKKFGLKCELLAKCEFFNAGGSVKDRISLRMIEDAERDGTLKPGDTIIEPTSGNTGIGLALAAAVRGYRCIIVMPEKMSSEKVDVLRALGAEIVRTPTNARFDSPESHVGVAWRLKNEIPNSHILDQYRNASNPLAHYDTTADEILQQCDGKLDMLVASVGTGGTITGIARKLKEKCPGCRIIGVDPEGSILAEPEELNQTEQTTYEVEGIGYDFIPTVLDRTVVDKWFKSNDEEAFTFARMLIAQEGLLCGGSAGSTVAVAVKAAQELQEGQRCVVILPDSVRNYMTKFLSDRWMLQKGFLKEEDLTEKKPWWWHLR
notes: source: E. coli Rosetta (DE3), purified
stoichiometry N: 2
